This series has as its system N.BstNBI nicking endonuclease. The experiment in a line: cleavage_in_vitro.

As to “CCTACGACTGGAACAATAAAACCTACGACTGGA / CAGTCGTAGGTGAGTCTGTTCCAGTCGTAGG [Duplex 9c T-1c/B-2]”, the activity (relative mass units) (same conditions) turned out to be 19.2.

For “CCTACGACTGGAACAGTAACACCTACGACTGGA / CAGTCGTAGGTGAGTCTGTTCCAGTCGTAGG [Duplex 8c T-1c/B-7]”, the activity (relative mass units) (same conditions) is 11.5. “CCTACGACTGGAACAATAAAACCTACGACTGGA / GTCGTAGGTGAGTCTGTTCCAGTCGTAGG [Duplex 9e T-1e/B-2]” returned an activity (relative mass units) (same conditions) of 14.

“CCTACGACTGGAACAATAAAACCTACGACTGGA / TGAGTCTGTTCCAGTCGTAGG [Duplex 9m T-1m/B-2]”: where the note is “same conditions”, the activity (relative mass units) amounted to 13.5.

As to “CCTACGACTGGAACAGTAACACCTACGACTGGA / GTCGTAGGTGAGTCTGTTCCAGTCGTAGG [Duplex 8e T-1e/B-7]”, the activity (relative mass units) (same conditions) turned out to be 14.6.

Consider “CCTACGACTGGAACAGATTCACCTACGACTGGA / TCCAGTCGTAGGTGAGTCTGTTCCAGTCGTAGG [Duplex 3 T-1/B-3 1 mismatch]”, for which the activity (relative mass units) (same conditions) stood at 66.7.

For “CCTACGACTGGAACAATAAAACCTACGACTGGA / CGTAGGTGAGTCTGTTCCAGTCGTAGG [Duplex 9g/9l T-1g/B-2]”, for the setting “duplex 9g, 9l printed with same strands gave 22.5”, the activity (relative mass units) was 28.3. In turn, “CCTACGACTGGAACAGTAACACCTACGACTGGA / GGTGAGTCTGTTCCAGTCGTAGG [Duplex 8k T-1k/B-7]” showed an activity (relative mass units) (same conditions) of 19.3. Same read-out and setting: under “CCTACGACTGGAACAGTAACACCTACGACTGGA / TGAGTCTGTTCCAGTCGTAGG [Duplex 8m T-1m/B-7]” stands 18.3.

For “CCTACGACTGGAACAGACACACCTACGACTGGA / TCCAGTCGTAGGTGAGTCTGTTCCAGTCGTAGG [Duplex 4 T-1/B-4 1 mismatch]”, under “same conditions”, the activity (relative mass units) is 61.5. Still for that read-out and setting: the result for “CCTACGACTGGAACAGTAACACCTACGACTGGA / AGGTGAGTCTGTTCCAGTCGTAGG [Duplex 8j T-1j/B-7]” reads 18.3; that for “CCTACGACTGGAACAGTAACACCTACGACTGGA / GTAGGTGAGTCTGTTCCAGTCGTAGG [Duplex 8h T-1h/B-7]”, 12.3.

Where the note is “duplex 7, repeat 8a 23.4”, “CCTACGACTGGAACAGTAACACCTACGACTGGA / TCCAGTCGTAGGTGAGTCTGTTCCAGTCGTAGG [Duplex 7/8a T-1/B-7 3 mismatches]” had an activity (relative mass units) of 21.2. Turning to “CCTACGACTGGAACAGTAACACCTACGACTGGA / GAGTCTGTTCCAGTCGTAGG [Duplex 8n T-1n/B-7]”, the activity (relative mass units) (same conditions) was found to be 12.5. Take “CCTACGACTGGAACAGTAACACCTACGACTGGA / AGTCGTAGGTGAGTCTGTTCCAGTCGTAGG [Duplex 8d T-1d/B-7]”: where the note is “same conditions”, the activity (relative mass units) worked out at 29.2.

For the setting “duplex 2, repeat 9a 21.3”, “CCTACGACTGGAACAATAAAACCTACGACTGGA / TCCAGTCGTAGGTGAGTCTGTTCCAGTCGTAGG [Duplex 2/9a T-1/B-2 5 mismatches]” yielded an activity (relative mass units) of 18.5. In the case of “CCTACGACTGGAACAATAAAACCTACGACTGGA / TAGGTGAGTCTGTTCCAGTCGTAGG [Duplex 9i T-1i/B-2]”, the activity (relative mass units) (same conditions) was determined as 23.9.

Under “same conditions”, “CCTACGACTGGAACAGTAACACCTACGACTGGA / TCGTAGGTGAGTCTGTTCCAGTCGTAGG [Duplex 8f T-1f/B-7]” yielded an activity (relative mass units) of 17.8. On to “CCTACGACTGGAACAATAAAACCTACGACTGGA / AGGTGAGTCTGTTCCAGTCGTAGG [Duplex 9j T-1j/B-2]”, for which, for the setting “same conditions”, the activity (relative mass units) turned out to be 21.4. “CCTACGACTGGAACAGAAACACCTACGACTGGA / TCCAGTCGTAGGTGAGTCTGTTCCAGTCGTAGG [Duplex 6 T-1/B-6 2 mismatches]” had an activity (relative mass units) (same conditions) of 45. As for “CCTACGACTGGAACAATAAAACCTACGACTGGA / GTAGGTGAGTCTGTTCCAGTCGTAGG [Duplex 9h T-1h/B-2]”, under “same conditions”, the activity (relative mass units) was found to be 22.7. The sequence “CCTACGACTGGAACAGTAACACCTACGACTGGA / CGTAGGTGAGTCTGTTCCAGTCGTAGG [Duplex 8g T-1g/B-7]” yielded an activity (relative mass units) (same conditions) of 20.8.

In the case of “CCTACGACTGGAACAGACTCACCTACGACTGGA (double strand) [Duplex 1 T-1/B-1 perfect]”, the activity (relative mass units) (nicking coupled to Vent exo- extension, LC/MS of released fragment, Mg2+, trehalose, 60 C 1 h) came to 121. As for “CCTACGACTGGAACAGTAACACCTACGACTGGA / TAGGTGAGTCTGTTCCAGTCGTAGG [Duplex 8i T-1i/B-7]”, under “same conditions”, the activity (relative mass units) came out at 14.9. On to “CCTACGACTGGAACAGTAACACCTACGACTGGA / GTGAGTCTGTTCCAGTCGTAGG [Duplex 8l T-1l/B-7]”, for which the activity (relative mass units) (same conditions) is 15.6.

“CCTACGACTGGAACAATAAAACCTACGACTGGA / GAGTCTGTTCCAGTCGTAGG [Duplex 9n T-1n/B-2]” yielded an activity (relative mass units) (same conditions) of 14.3. Turning to “CCTACGACTGGAACAATAAAACCTACGACTGGA / AGTCGTAGGTGAGTCTGTTCCAGTCGTAGG [Duplex 9d T-1d/B-2]”, for the setting “same conditions”, the activity (relative mass units) is 15.3. Still for that read-out and setting: the result for “CCTACGACTGGAACAGTAACACCTACGACTGGA / CCAGTCGTAGGTGAGTCTGTTCCAGTCGTAGG [Duplex 8b T-1b/B-7]” reads 28.3.

For the setting “same conditions”, “CCTACGACTGGAACAATAAAACCTACGACTGGA / CCAGTCGTAGGTGAGTCTGTTCCAGTCGTAGG [Duplex 9b T-1b/B-2]” registered an activity (relative mass units) of 17.8. “CCTACGACTGGAACAATAAAACCTACGACTGGA / TCGTAGGTGAGTCTGTTCCAGTCGTAGG [Duplex 9f/9k T-1f/B-2]” displayed an activity (relative mass units) (duplex 9f, 9k printed with same T strand gave 22.6) of 15.9. Where the note is “same conditions”, “CCTACGACTGGAACAGTCTCACCTACGACTGGA / TCCAGTCGTAGGTGAGTCTGTTCCAGTCGTAGG [Duplex 5 T-1/B-5 1 mismatch]” had an activity (relative mass units) of 63.
